Results from patent US20180258158A1 (Bristol-Myers Squibb, published 2018).
Residue numbers refer to the chain shown, from its start. Names and notes keep the numbering of the source.

B1: ADX_6727_A07 (Y44S/K85T) (designed binder)
chain: MGVSDVPRDLEVVAATPTSLLISWDAPAVTVRYYRITYGREVQKYSDLGPLYISQEFTVPGSKSTATISGLKPGVDYTITVYAVTGSGESPASSTPISINYRTEIDKPSQHHHHHH
notes: Full His6-tagged entry
B2: ADX_6727_B09 (L38T/K85T) (designed binder)
chain: B1 chain with L48T, S54Y
notes: Full His6-tagged entry
B3: ADX_6727_H10 (L41S/K85S) (designed binder)
chain: B1 chain with L51S, S54Y, T95S
notes: Full His6-tagged entry
B4: ADX_6727_G10 (Y35S/K85A) (designed binder)
chain: B1 chain with Y45S, S54Y, T95A
notes: Full His6-tagged entry
B5: ADX_6727_H08 (L38T/K85T) (designed binder)
chain: B1 chain with L48T, S54Y
notes: Full His6-tagged entry; Printed with the same substitutions as ADX_6727_B09
B6: ADX_6727_H06 (Y44Q/K85T) (designed binder)
chain: B1 chain with S54Q
notes: Full His6-tagged entry
B7: ADX_6727_D03 (L41S) (designed binder)
chain: B1 chain with L51S, S54Y, T95K
notes: Full His6-tagged entry
B8: ADX_6727_G06 (Y35A/K85S) (designed binder)
chain: B1 chain with Y45A, S54Y, T95S
notes: Full His6-tagged entry
B9: ADX_6727_B04 (Y35S/K85S) (designed binder)
chain: B1 chain with Y45S, S54Y, T95S
notes: Full His6-tagged entry
B10: ADX_7016_C03 (Y44Q) (designed binder)
chain: B1 chain with S54Q, T95K
notes: Full His6-tagged entry; also called 6727_B03
B11: ADX_6727_F07 (Y44S/K85A) (designed binder)
chain: B1 chain with T95A
notes: Full His6-tagged entry
B12: ADX_6727_F10 (Y35A/K85T) (designed binder)
chain: B1 chain with Y45A, S54Y
notes: Full His6-tagged entry
B13: ADX_6727_G04 (Y44S/K85S) (designed binder)
chain: B1 chain with T95S
notes: Full His6-tagged entry

The binders below were run against T1, mouse serum albumin (MSA), full length (mouse, UniProt P07724 25-608) (assay: SPR off-rate, immobilized MSA, 500 nM Adnectin, 25 C).
T1 construct: mature; Immobilized on CM5 chip (SPR) or coated on plates (ELISA); also called mouse albumin; murine serum albumin
Protocol: (§1) Measurements were conducted by SPR and ELISA. SPR was conducted as follows. Full length HSA or mouse albumin was immobilized on a Biacore T series CM5 chip at 15 ug/mL in 10 mM acetate buffer (pH 5.0) buffer using standard NHS/EDC coupling, to a surface density of approximately 1000-1100 RU. For off-rate measurements at 25° C., PKE Adnectins were applied as analytes at 500 nM in HBS-P+(0.01 M HEPES pH 7.4, 0.15 M NaCl, 0.005% v/v Surfactant P20) running buffer at a flow rate of 20ul/min for 120 s over the immobilized albumins, followed by 800 s for dissociation. […] Regeneration of the chip surface between cycles was accomplished with two 30 second pulses of 10 mM Glycine, pH 2.0. Kinetic traces of reference-subtracted sensorgrams were fit to a 1:1 binding model for affinity using the Biaevaluation software. Only the dissociation phase was fit for determination of off-rates.

| Binder | koff [s⁻¹] |
| --- | --- |
| B1 | 0.00222 |
| B2 | 0.0262 |
| B3 | 0.0146 |
| B4 | 0.00138 |
| B5 | 0.0284 |
| B6 | 0.0143 |
| B7 | 0.0134 |
| B8 | 0.00143 |
| B9 | 0.00142 |
| B10 | 0.0179 |
| B11 | 0.00277 |
| B12 | 0.00156 |
| B13 | 0.00259 |

Each binder was assayed against T2, human serum albumin (HSA), full length (human, UniProt P02768 25-609) (assay: direct binding ELISA, coated HSA, anti-His-HRP).
T2 construct: mature; Immobilized on CM5 chip (SPR) or coated on plates (ELISA)
Parameters: unit not given here
Protocol: (§2) Direct binding ELISA assays were conducted as follows. Full length human and murine serum albumin at 10ug/ml in PBS were coated on Nunc Maxisorp plates overnight at 4° C. Plates were blocked in casein/PBS buffer. PKE Adnectins were allowed to bind over a 4-point concentration range of 0.032-4 uM for HSA and 0.008-1 uM for MSA. Bound Adnectin was detected by anti-His antibody conjugated with HRP (horseradish peroxidase) diluted 1:1500 in casein/PBS. Plates were developed with TMB substrate and absorbance read at 450 nm. Adnectins were binned as high, medium and low affinity binders based on the observed Ymax of the concentration response curves.

T2 sequence (P02768 25-609): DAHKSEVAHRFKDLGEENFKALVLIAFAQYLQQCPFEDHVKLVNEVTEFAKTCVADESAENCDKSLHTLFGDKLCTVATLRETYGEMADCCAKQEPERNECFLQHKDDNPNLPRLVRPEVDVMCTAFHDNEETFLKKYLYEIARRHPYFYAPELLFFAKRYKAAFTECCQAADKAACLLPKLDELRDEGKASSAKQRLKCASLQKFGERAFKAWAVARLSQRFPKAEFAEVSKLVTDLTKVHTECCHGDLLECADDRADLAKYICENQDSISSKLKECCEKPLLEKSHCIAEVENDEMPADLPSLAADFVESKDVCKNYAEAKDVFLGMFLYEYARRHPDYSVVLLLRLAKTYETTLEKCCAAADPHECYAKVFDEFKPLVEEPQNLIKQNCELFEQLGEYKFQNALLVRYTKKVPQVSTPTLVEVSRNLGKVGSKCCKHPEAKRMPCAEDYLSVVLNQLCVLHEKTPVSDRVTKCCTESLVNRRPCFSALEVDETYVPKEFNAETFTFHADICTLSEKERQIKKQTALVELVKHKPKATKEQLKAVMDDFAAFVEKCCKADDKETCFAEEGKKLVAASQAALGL

| Binder | HSA DB ELISA (OD450) Ymax obs | HSA DB ELISA (OD450) Ymin obs |
| --- | --- | --- |
| B2 | 16 | 2 |
| B4 | 96 | 54 |
| B9 | 99 | 62 |

These binders were tested against T2, human serum albumin (HSA), full length (assay: SPR off-rate ratio to parent ADX_7016_A01, HSA, 25 C).
Protocol: as §1

| Binder | HSA kd/Parent kd |
| --- | --- |
| B2 | 34 |
| B4 | 3.3 |
| B9 | 4.1 |

Each binder was assayed against T2, human serum albumin (HSA), full length (assay: SPR off-rate, immobilized HSA, 500 nM Adnectin, 25 C).
Protocol: as §1

| Binder | koff [s⁻¹] |
| --- | --- |
| B2 | 0.00921 |
| B4 | 0.000892 |
| B9 | 0.0011 |

Each binder was assayed against T1, mouse serum albumin (MSA), full length (assay: direct binding ELISA, coated MSA, anti-His-HRP).
Protocol: as §2

| Binder | MSA DB ELISA YMIN OBS (OD450) |
| --- | --- |
| B2 | 1 |
| B3 | 1 |
| B5 | 1 |
| B6 | 1 |
| B7 | 1 |
| B10 | 1 |

Biological target: T1, mouse serum albumin (MSA), full length
Assay: direct binding ELISA, coated MSA, anti-His-HRP
Parameters: unit not given here
Remark: another data set of the same source
Protocol: as §2

| Binder | MSA DB ELISA (OD450) Ymax obs | MSA DB ELISA (OD450) Ymin obs |
| --- | --- | --- |
| B2 | 27 | 1 |
| B4 | 100 | 54 |
| B9 | 95 | 74 |

Each binder was assayed against T2, human serum albumin (HSA), full length (assay: SPR, immobilized HSA, 500 nM Adnectin, 25 C).
Protocol: as §1

| Binder | HSA Binding (RU) |
| --- | --- |
| B1 | 28 |
| B3 | 19 |
| B4 | 27 |
| B6 | 24 |
| B7 | 24 |
| B8 | 26 |
| B9 | 23 |
| B10 | 14 |
| B11 | 35 |
| B12 | 22 |
| B13 | 28 |

The binders below were run against T1, mouse serum albumin (MSA), full length (assay: SPR, immobilized MSA, 500 nM Adnectin, 25 C).
Protocol: as §1

| Binder | MSA Binding (RU) |
| --- | --- |
| B1 | 56 |
| B3 | 35 |
| B4 | 63 |
| B6 | 43 |
| B7 | 43 |
| B8 | 66 |
| B9 | 62 |
| B10 | 33 |
| B11 | 62 |
| B12 | 55 |
| B13 | 56 |

The binders below were run against T1, mouse serum albumin (MSA), full length (assay: SPR off-rate ratio to parent ADX_7016_A01, MSA, 25 C).
Protocol: as §1

| Binder | MSA kd/Parent kd |
| --- | --- |
| B2 | 61.2 |
| B4 | 3.2 |
| B9 | 3.3 |

Biological target: T1, mouse serum albumin (MSA), full length
Assay: SPR off-rate, immobilized MSA, 500 nM Adnectin, 25 C
Remark: another data set of the same source
Protocol: as §1

| Binder | koff [s⁻¹] |
| --- | --- |
| B2 | 0.0262 |
| B4 | 0.00138 |
| B9 | 0.00142 |

Each binder was assayed against T3, cynomolgus monkey serum albumin (cynoSA), full length (cynomolgus monkey, UniProt A2V9Z4 25-608) (assay: SPR kinetics (Biacore, CM5): ligand '15ug/ml Cyno SA in Acetate 5.0' immobilised, Adnectin concentration series as analyte, 37 C, 1:1 binding fit; curve Fc=2-1 [panel Cyno SA]).
T3 construct: mature; Immobilized on CM5 chip (SPR); the cynoSA experiment used a different Biacore chip; also called CySA
Protocol: as §1, with “The SPR” for “Measurements were conducted by SPR and ELISA. SPR”, “length human, mouse, rat and cynomolgus monkey serum” for “length HSA or mouse”, “albumin were” for “albumin was”

T3 sequence (A2V9Z4 25-608): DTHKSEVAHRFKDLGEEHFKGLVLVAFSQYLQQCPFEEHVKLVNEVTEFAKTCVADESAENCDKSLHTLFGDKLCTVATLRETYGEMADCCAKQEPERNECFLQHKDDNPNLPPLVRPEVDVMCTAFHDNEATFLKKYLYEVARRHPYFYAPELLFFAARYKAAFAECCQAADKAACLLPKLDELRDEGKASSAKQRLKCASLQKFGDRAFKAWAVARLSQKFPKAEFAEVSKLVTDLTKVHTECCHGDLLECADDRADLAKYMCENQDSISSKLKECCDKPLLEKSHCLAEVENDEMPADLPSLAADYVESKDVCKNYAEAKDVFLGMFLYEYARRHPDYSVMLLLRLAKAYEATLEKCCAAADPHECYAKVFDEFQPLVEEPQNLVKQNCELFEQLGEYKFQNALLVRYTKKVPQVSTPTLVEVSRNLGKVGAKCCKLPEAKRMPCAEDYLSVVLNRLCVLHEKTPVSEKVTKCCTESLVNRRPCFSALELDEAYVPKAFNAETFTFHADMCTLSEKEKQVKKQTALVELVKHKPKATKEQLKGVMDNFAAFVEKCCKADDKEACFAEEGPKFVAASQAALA

| Binder | Kd [nM] | koff [s⁻¹] | kon [M⁻¹ s⁻¹] |
| --- | --- | --- | --- |
| B10 | 1080 | 0.0444 | 41200 |

Biological target: T2, human serum albumin (HSA), full length
Assay: SPR off-rate ratio to parent ADX_7016_A01, HSA, 25 C
Remark: another data set of the same source
Protocol: as §1

| Binder | HSA kd/Parent kd |
| --- | --- |
| B1 | 4.8 |
| B3 | 32 |
| B4 | 3.3 |
| B6 | 52.7 |
| B7 | 28.9 |
| B8 | 3.9 |
| B9 | 4.1 |
| B10 | 79.4 |
| B11 | 6.5 |
| B12 | 4 |
| B13 | 6.6 |

Biological target: T1, mouse serum albumin (MSA), full length
Assay: SPR off-rate ratio to parent ADX_7016_A01, MSA, 25 C
Remark: another data set of the same source
Protocol: as §1

| Binder | MSA kd/Parent kd |
| --- | --- |
| B1 | 5.2 |
| B3 | 34 |
| B4 | 3.2 |
| B6 | 33.5 |
| B7 | 31.3 |
| B8 | 3.3 |
| B9 | 3.3 |
| B10 | 41.9 |
| B11 | 6.5 |
| B12 | 3.6 |
| B13 | 6 |

Each binder was assayed against T3, cynomolgus monkey serum albumin … (assay: SPR kinetics, immobilized albumin, 1:1 fit, 37 C).
Protocol: as §1, with “The SPR” for “Measurements were conducted by SPR and ELISA. SPR”, “length human, mouse, rat and cynomolgus monkey serum” for “length HSA or mouse”, “albumin were” for “albumin was”

| Binder | Kd [nM] | koff [s⁻¹] | kon [M⁻¹ s⁻¹] |
| --- | --- | --- | --- |
| B10 | 1080 | 0.0444 | 41200 |

These binders were tested against T1, mouse serum albumin (MSA), full length (assay: SPR kinetics, immobilized albumin, 1:1 fit, 37 C).
Protocol: as §1, with “The SPR” for “Measurements were conducted by SPR and ELISA. SPR”, “length human, mouse, rat and cynomolgus monkey serum” for “length HSA or mouse”, “albumin were” for “albumin was”

| Binder | Kd [nM] | koff [s⁻¹] | kon [M⁻¹ s⁻¹] |
| --- | --- | --- | --- |
| B10 | 265 | 0.0305 | 115000 |

Each binder was assayed against T4, rat serum albumin (rat SA), full length (rat, UniProt P02770 25-608) (assay: SPR kinetics, immobilized albumin, 1:1 fit, 37 C).
T4 construct: mature; Immobilized on CM5 chip (SPR); also called RSA
Protocol: as §1, with “The SPR” for “Measurements were conducted by SPR and ELISA. SPR”, “length human, mouse, rat and cynomolgus monkey serum” for “length HSA or mouse”, “albumin were” for “albumin was”

T4 sequence (P02770 25-608): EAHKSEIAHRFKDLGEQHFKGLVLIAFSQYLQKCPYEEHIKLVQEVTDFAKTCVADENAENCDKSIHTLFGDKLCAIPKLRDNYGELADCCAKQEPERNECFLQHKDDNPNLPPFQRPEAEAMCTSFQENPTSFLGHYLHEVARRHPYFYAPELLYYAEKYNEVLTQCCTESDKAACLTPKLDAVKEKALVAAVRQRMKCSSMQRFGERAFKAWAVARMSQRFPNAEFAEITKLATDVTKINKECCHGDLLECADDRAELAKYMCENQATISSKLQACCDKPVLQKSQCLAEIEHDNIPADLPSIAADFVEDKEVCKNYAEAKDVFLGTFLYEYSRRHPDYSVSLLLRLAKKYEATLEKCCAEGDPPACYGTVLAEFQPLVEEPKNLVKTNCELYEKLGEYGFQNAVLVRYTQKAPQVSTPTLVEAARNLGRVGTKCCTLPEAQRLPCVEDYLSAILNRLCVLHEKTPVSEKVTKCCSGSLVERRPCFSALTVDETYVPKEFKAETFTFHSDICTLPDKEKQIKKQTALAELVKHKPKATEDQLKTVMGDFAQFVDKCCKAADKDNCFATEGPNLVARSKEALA

| Binder | Kd [nM] | koff [s⁻¹] | kon [M⁻¹ s⁻¹] |
| --- | --- | --- | --- |
| B10 | 1340 | 0.119 | 89100 |

These binders were tested against T2, human serum albumin (HSA), full length (assay: SPR kinetics, immobilized albumin, 1:1 fit, 37 C).
Protocol: as §1, with “The SPR” for “Measurements were conducted by SPR and ELISA. SPR”, “length human, mouse, rat and cynomolgus monkey serum” for “length HSA or mouse”, “albumin were” for “albumin was”

| Binder | Kd [nM] | koff [s⁻¹] | kon [M⁻¹ s⁻¹] |
| --- | --- | --- | --- |
| B10 | 889 | 0.0285 | 32100 |

Biological target: T2, human serum albumin (HSA), full length
Assay: SPR off-rate, immobilized HSA, 500 nM Adnectin, 25 C
Remark: another data set of the same source
Protocol: as §1

| Binder | koff [s⁻¹] |
| --- | --- |
| B1 | 0.00129 |
| B2 | 0.00921 |
| B3 | 0.0086 |
| B4 | 0.000892 |
| B5 | 0.01 |
| B6 | 0.0142 |
| B7 | 0.00777 |
| B8 | 0.00105 |
| B9 | 0.0011 |
| B10 | 0.0214 |
| B11 | 0.00176 |
| B12 | 0.00109 |
| B13 | 0.00177 |
